The record followed here is US7507412B2, “Glycoprotein VI fusion proteins” (Merck Patent GmbH, priority 2001, dated 2009).

Assay [1] has as its target T1, collagen type III (Homo sapiens, UniProt P02461).
T1 sequence (P02461 154-1221 limits assumed): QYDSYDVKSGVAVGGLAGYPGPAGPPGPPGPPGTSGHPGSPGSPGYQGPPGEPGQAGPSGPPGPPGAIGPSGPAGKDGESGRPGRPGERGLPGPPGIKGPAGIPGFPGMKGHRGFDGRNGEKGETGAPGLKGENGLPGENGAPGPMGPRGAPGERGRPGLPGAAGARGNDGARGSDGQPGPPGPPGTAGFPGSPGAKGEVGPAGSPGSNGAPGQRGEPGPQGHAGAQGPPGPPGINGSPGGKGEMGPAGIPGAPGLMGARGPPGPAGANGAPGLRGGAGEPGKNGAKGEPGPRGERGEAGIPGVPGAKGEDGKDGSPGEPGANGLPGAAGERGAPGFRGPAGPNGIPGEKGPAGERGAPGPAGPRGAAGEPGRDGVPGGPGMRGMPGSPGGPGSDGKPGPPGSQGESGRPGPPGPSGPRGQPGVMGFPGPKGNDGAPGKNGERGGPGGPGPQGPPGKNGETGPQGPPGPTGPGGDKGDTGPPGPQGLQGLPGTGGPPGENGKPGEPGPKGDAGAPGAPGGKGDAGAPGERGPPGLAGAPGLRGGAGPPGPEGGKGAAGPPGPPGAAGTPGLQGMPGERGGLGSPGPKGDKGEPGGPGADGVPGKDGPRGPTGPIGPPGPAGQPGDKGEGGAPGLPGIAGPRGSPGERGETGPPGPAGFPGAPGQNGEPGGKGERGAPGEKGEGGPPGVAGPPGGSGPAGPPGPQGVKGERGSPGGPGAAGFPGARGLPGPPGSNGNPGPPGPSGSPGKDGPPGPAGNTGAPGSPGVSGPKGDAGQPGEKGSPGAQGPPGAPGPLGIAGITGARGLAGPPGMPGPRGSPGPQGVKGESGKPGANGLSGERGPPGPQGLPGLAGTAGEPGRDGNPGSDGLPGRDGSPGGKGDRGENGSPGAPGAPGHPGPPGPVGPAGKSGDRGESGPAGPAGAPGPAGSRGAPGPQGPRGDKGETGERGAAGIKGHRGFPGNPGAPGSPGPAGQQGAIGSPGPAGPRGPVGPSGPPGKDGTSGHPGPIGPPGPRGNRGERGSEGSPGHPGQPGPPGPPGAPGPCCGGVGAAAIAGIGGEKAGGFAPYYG
The assay is described as follows: ELISA: GPVI-Fc binding at collagen-coated microtiter plates. The settings on record: HEPES binding buffer pH 7.4, FIG. 4. The source says:
GPVI-Fc, solved in HEPES buffer (pH 7.4) containing 1% BSA and 0.05% Tween 20, was allowed to bind at collagen-coated microtiter plates. The amount of collagen-bound GPVI-Fc was calorimetrically detected by an anti-Fc antibody conjugated with horse radish peroxidase. Non-specific binding was estimated by a collagen non-specific Fc fusion protein applied instead of GPVI-Fc. Data shown as mean (n=2).
In principle, collagen coated microtiter plates are used as a matrix and GPVI-Fc as the ligand. The detection of bound GPVI-Fc is carried out by an anti-Fc antibody conjugated with horse radish peroxidase which binds specifically at the Fc moiety. After addition of peroxidase substrate, the amount of bound GPVI-Fc is reflected by an increase in absorption.
The polystyrol microtiterplates are coated with 50 μl of 20 μg/ml collagen type III suspended in TRIS buffered saline pH 8.0 for 12 h. Non-bound collagen is removed by washing. Afterwards, free protein binding sites are blocked by 5% (w/v) milk powder and 0.05% (v/v) Tween® 20 both solved in HEPES buffer (pH 7.4).
GPVI-Fc, in a concentration range of 0.1-100 nM, is solved in binding buffer (HEPES, 1% (w/v) bovine serum albumin, 0.05% (v/v) Tween® 20, pH 7.4). […]
Fifty μl of GPVI-Fc solution are given into each well. […] Finally, the amount of bound GPVI-Fc is calorimetrically detected by the peroxidase reaction.
In general terms: ELISA stands for enzyme-linked immunosorbent assay.

The next assay has as its system human platelets. The assay is described as follows: Collagen-induced platelet aggregation, determined turbidometrically. The assay is classed as cell-based. The note with it: GPVI-Fc added prior to collagen, 10 μg/ml collagen, FIG. 6. How it is done:
Platelet aggregation is turbidometrically determined after the addition of 10 μg/ml collagen (control) and in the presence of different GPVI-Fc concentrations. Data are shown as means (n=4).
The therapeutic relevance for GPVI-antagonists to prevent collagen-induced thromboembolic complications is shown by a GPVI-Fc titration curve (FIG. 6). Briefly, stimulation of human platelets with collagen induces an aggregation within minutes. […] Therefore, collagen trapped by GPVI-Fc is no longer able to induce an aggregation of platelets. Considering the therapeutic relevance of GPVI receptor antagonism the following conclusion can be drawn from the results presented above: • (i) GPVI-Fc itself can be used as a drug to prevent collagen-induced thromboembolic complications. • (ii) Antagonism of the platelet GPVI receptor by low molecular drugs should prevent the collagen-induced aggregation.

The target in assay [2] is T2, human collagen type III (Sigma) (human, UniProt P02461 154-1221, limits assumed).
T2 construct: Purified natural collagen immobilised on the chip (331 RU); also called Collagen type III (human)
T2 sequence (looked up): T1 sequence (P02461 154-1221 limits assumed)
The assay is described as follows: SPR equilibrium analysis, assuming 75000 Da and fully active protein. How it is done:
(§1) Protein interactions were identified and characterized by SPR technology using the BIAcore® 3000 instrument (BIAcore®, Freiburg, Germany) and methodology (Johnsson and Lindqvist, 1992; Johnsson et al., 1991). Coupling reagents were used according to protocols developed by the supplier. Coupling to the CM 5 sensor chip was done via activated carboxylate groups to free amine groups of human collagen type III (Sigma®). The pH-scouting and the coupling chemistry was performed under standard conditions (Johnsson and Lindqvist, 1992; Johnsson et al., 1991). For coupling the collagen was diluted to 0.125 µg/ml into 10 mM acetate buffer pH 4.5, resulting in 331 RU immobilized material.
(§2) For the binding experiments purified recombinant glycoprotein VI was used. The protein was diluted into 20 mM Hepes, pH 7.4, 150 mM NaCl, 5 mM EDTA, 0.005% Tween® 20. All binding experiments were performed at 25° C. and performed in duplicates.

In assay [3] the target is T2, human collagen type III (Sigma). Description: SPR, BIAcore 3000, collagen type III immobilised, GPVI in solution, 25 C. The method, then:
as §1, §2
Background: Surface plasmon resonance follows binding to a sensor surface in real time, without labels.

Assay [4] addresses T1, collagen type III. The assay is described as follows: Binding of GPVI to collagen type III measured by surface plasmon resonance (BIAcore 3000). The arrangement: purchased Sigma.
Source text: The known interaction of GPVI to Collagen was used to develop a binding test with the BIAcore 3000. The binding of proteins to immobilized ligands can be monitored using the phenomenon of surface plasmon resonance (SPR). This technique can give results regarding the affinity and kinetics of interacting molecules in solution.
In this assay human collagen type III was immobilized on the sensor surface as stated in the methods and purified soluble GPVI was passed over the collagen surface.
as §1, with “μg/ml” for “µg/ml”
as §2
The titration with glycoprotein VI was performed at concentrations ranging from 0.2 μg/ml to 50 μg/ml.
Total protein concentrations were determined by the BCA method (Pierce) The kinetic of the interaction of GPVI with collagen can be observed in the sensorgram seen in FIG. 7. In the experiment increasing concentrations of purified GPVI were passed over the collagen type III surface.

For orientation: Kd means the equilibrium constant for the complex coming apart. A lower Kd goes with a tighter complex. The koff is the rate constant with which the complex falls apart. Higher therefore signals fast dissociation.

For the molecule “GPVI-Fc: Fusion of extracellular part of GPVI (aa 21 to 269), Cys-Gly-Arg linker and Fc of IgG1, encoded in KL74A”, in the assay with collagen type III [1], the “concentration at which collagen-binding sites are completely occupied (saturation curve)” value is on record as “above 100 nM”. Moreover, in the assay on human platelets, the “suppression of collagen-induced platelet aggregation” value is listed as “concentration-dependent reduction of platelet-aggregation”.

B1: purified recombinant glycoprotein VI (receptor, UniProt Q9HCN6 21-269, looked up)
chain: QSGPLPKPSLQALPSSLVPLEKPVTLRCQGPPGVDLYRLEKLSSSRYQDQAVLFIPAMKRSLAGRYRCSYQNGSLWSLPSDQLELVATGVFAKPSLSAQPGPAVSSGGDVTLQCQTRYGFDQFALYKEGDPAPYKNPERWYRASFPIITVTAAHSGTYRCYSFSSRDPYLWSAPSDPLELVVTGTSVTPSRLPTEPPSPVAEFSEATAELTVSFTNEVFTTETSRSITASPKESDSPAGPARQYYTKGN
notes: also called GPVI; purified soluble GPVI
On to B1, for which the Kd in assay [2] is roughly 120 nM. Besides, the koff in assay [3] came to 0.003 s⁻¹. For the same molecule, the “dissociation rate constant from the collagen surface” value with collagen type III [4] (25° C.) was 0.003 s⁻¹. The “time until binding reaches saturation” value in the assay with collagen type III [4] (25° C., GPVI 0.2-50 μg/ml) was “about 200 seconds”. The “half maximal concentration of saturation for the GPVI/collagen interaction” value in the assay with collagen type III [4] (equilibrium binding signal, non linear fit, 1:1 binding model, FIG. 8) stood at 9 µg/mL.
